Among the data in paper PMC5030094, “Human DNA2 possesses a cryptic DNA unwinding activity that functionally integrates with BLM or WRN helicases” are Kd values, retold here.

The data set concerns the target T1, hDNA2 D277A (nuclease-deficient) (Homo sapiens, UniProt P51530 1-1060, D277A).
T1 sequence: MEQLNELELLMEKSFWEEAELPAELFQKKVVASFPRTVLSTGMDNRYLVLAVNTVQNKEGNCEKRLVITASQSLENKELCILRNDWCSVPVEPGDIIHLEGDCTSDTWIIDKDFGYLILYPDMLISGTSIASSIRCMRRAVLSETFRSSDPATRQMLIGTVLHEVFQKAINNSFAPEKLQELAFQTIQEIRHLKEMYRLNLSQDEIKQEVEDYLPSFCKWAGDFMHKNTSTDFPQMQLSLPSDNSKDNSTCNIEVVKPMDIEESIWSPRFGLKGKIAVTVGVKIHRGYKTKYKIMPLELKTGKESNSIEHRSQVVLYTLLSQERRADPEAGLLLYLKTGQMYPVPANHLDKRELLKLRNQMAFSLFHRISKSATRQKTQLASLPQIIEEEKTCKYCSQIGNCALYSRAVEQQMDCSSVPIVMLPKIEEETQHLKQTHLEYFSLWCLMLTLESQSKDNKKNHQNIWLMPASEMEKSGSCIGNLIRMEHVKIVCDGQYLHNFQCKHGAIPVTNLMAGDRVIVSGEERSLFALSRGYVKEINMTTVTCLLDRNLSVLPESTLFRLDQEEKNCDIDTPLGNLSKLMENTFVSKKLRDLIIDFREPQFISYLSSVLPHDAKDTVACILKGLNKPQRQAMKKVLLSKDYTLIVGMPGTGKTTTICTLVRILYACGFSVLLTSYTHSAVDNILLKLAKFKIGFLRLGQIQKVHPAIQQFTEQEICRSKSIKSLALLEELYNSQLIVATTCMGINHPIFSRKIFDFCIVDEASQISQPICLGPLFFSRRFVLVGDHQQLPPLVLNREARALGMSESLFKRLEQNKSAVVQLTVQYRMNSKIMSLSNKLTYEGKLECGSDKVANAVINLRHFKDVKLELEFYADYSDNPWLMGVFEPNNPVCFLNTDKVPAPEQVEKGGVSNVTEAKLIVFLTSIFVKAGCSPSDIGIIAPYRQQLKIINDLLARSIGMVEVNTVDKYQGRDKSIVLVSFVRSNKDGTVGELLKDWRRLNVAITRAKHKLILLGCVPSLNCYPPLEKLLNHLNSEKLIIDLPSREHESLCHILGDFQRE
Put plainly: EMSA; no RPA; 25 mM Tris-acetate pH 7.5, 2 mM Mg acetate, 1 mM DTT, 0.1 mg/ml BSA, 1 nM DNA, 37 C 30 min; 6% PAGE in TAE on ice. As to conditions: protein: recombinant; tags: N-terminal 6xHis, C-terminal FLAG; label: 5' 32P; single strand. On the technique in general: In EMSA bound probe runs differently from free probe, usually more slowly.

In the case of GACGTCATAGACGATTACATTGCTAGGACATGCTGTCTAGAGACTATCGC (ssDNA) [ssDNA 50 nt (X12-3)], the Kd was roughly 2 nM.

The Kd is the equilibrium constant for the complex coming apart.
